{"source": "patent US20170173114A1", "about": "“METHODS AND COMPOSITIONS FOR INDUCTION OF UCP1 EXPRESSION” (Joslin Diabetes Center, Inc., priority 2014, published 2017)", "molecules": {"B1": {"name": "FGF6: fibroblast growth factor 6; recombinant human FGF from R&D Systems, or mouse FGF6 cDNA overexpressed by lentiviral vector (protein)", "chain": "KRQRRLYCNVGIGFHLQVLPDGRISGTHEENPYSLLEISTVERGVVSLFGVRSALFVAMNSKGRLYATPSFQEECKFRETLLPNNYNAYESDLYQGTYIALSKYGRVKRGSKVSPIMTVTHFLPRI"}}, "key": {"PTGS2 (COX2)": {"system": "PTGS2 (COX2)", "experiment": "PTGS2 mRNA / COX2 protein expression in WT-1 brown preadipocytes", "format": "cell-based, murine", "method": "Total RNA was isolated with QIAzol lysis reagent (Qiagen, Valencia, Calif.) and purified by RNeasy Mini columns (Qiagen) following the manufacture's instructions. cDNA was prepared from total RNA using the Advantage RT-PCR kit (BD Biosciences, Palo Alto, Calif.) according to manufacturer's instructions. Diluted cDNA was used in a PCR reaction with SYBR Green Master Mix (Applied Biosystems, Foster City, Calif.) and primers specifically designed for detection of the gene of interest. PCR reactions were run in duplicate for each sample and quantitated in the ABI Sequence Detection System (Applied Biosystems). Data were expressed as arbitrary units after normalization to levels of expression of internal controls for each sample. Sequences of primers for specific genes are each obtained from the published literature or designed using publically available gene sequence databases. Unless otherwise indicated, gene expression data described in the examples below was obtained using QPCR.\nCells were harvested in lysis buffer (50 mM HEPES, 137 mM NaCl, 1 mM MgCl2, 1 mM CaCl2, 10 mM Na2P2O7, 10 mM NaF, 2 mM EDTA, 10% glycerol, 1% Igepal CA-630, 2 mM vanadate, 10 μg/ml of leupeptin, 10 μg/ml of aprotinin, 2 mM phenylmethylsulfonyl fluoride; pH 7.4). After lysis, lysates were clarified by centrifugation at 12,000×g for 20 min at 4° C., the amount of protein in the supernatants was determined by the Bradford Protein Assay (Bio-Rad Laboratories, Hercules, Calif.). Proteins were directly solubilized in Laemmli sample buffer. Equal amounts of lysates were separated by sodium dodecyl sulfate-polyacrylamide gel electrophoresis and transferred to Immobolin-P membranes. Membranes were blocked overnight at 4° C. and incubated with the indicated antibody for 2 hours at room temperature. Specifically bound primary antibodies were detected with peroxidase-coupled secondary antibody and enhanced chemiluminescence (ECL, Amersham Biosciences, Piscataway, N.J.).\nTo determine if FGF4, FGF5, FGF6, FGF10, FGF16, FGF17, FGF18 or FGF20 induced either UCP1 mRNA or PTGS2 mRNA expression, murine brown preadipocyte WT-1 cells (Tseng et al., Nat. Cell. Biol. (2005) 7(6):601-611) were grown in growth media (DMEM-high glucose+10% FBS) supplemented with FGF4, FGF5, FGF6, FGF10, FGF16, FGF17, FGF18, FGF20 or buffer (control) in combination with insulin (20 nM) and triidothyronine (T3, 1 nM) for three days. All FGFs were used at a dosage of 200 ng/mL. mRNA was isolated and UCP1 and PTGS2 gene expression levels were evaluated by quantitative reverse transcription polymerase chain reaction (Q-RT-PCR) analysis. All experiments were performed triplicate and the data are presented as mean+/−SEM.\nTo determine if FGF1 or FGF10 induce UCP1 mRNA expression or PTGS2 mRNA expression, murine brown preadipocyte WT-1 cells (Tseng et al., Nat. Cell. Biol. (2005) 7(6):601-611) were grown in growth media (DMEM-high glucose+10% FBS) supplemented with FGF1, FGF10 or vehicle (control) in combination with insulin (20 nM) and triidothyronine (T3, 1 nM) for three days. FGF1 and FGF10 were used at a dosage of 50 ng/mL, 100 ng/mL or 300 ng/mL. mRNA was isolated and UCP1 and PTGS2 expression levels were evaluated by quantitative reverse transcription polymerase chain reaction (Q-RT-PCR) analysis. All experiments were performed triplicate and the data are presented as mean+/−SEM.\nTo test the role of specific prostaglandins (PGs) in activating UCP1 expression, WT-1 brown adipocytes were pretreated with PGE2, PGI2 and FGF6 for 24 hours. mRNA expression levels of UCP1, PTGS2, LDHA, PDK1 and PKM2 were then measured."}, "UCP1": {"system": "UCP1", "experiment": "UCP1 expression in 3T3-F442A white preadipocytes overexpressing FGF6", "format": "cell-based", "settings": "constitutive overexpression of FGF6 in 3T3-F442A", "method": "FGF6 lentiviral vector was generated by cloning mouse FGF6 cDNA into a lentiviral vector. Lentiviruses were obtained by transfecting 293T cells with lentiviral vectors. Viral supernatant was filtered through 0.45 um filter before applying to cells. Transduction was accomplished by incubating cells with virus supernatant. Stable cells were established by drug selection. The lentiviral vector contains a drug resistant gene for selection.\nTo assess FGF6's role in the regulation of mitochondrial activity, FGF6 was stably expressed in WT-1 brown preadipocytes and 3T3-F442A white preadipocytes. Stable cells were generated by viral infection followed by drug selection.\nAs mentioned above, 3T3-F442A white preadipocytes were also used to determine FGF6's role in mitochondrial activity regulation."}, "WT-1 brown preadipocytes": {"system": "WT-1 brown preadipocytes", "experiment": "Extracellular acidification rate (glycolysis) profile in FGF6 overexpressing WT-1 brown preadipocytes", "format": "cell-based, murine", "settings": "FGF6 overexpressing WT-1 vs control cells", "method": "To determine whether nutrient supply could regulate mitochondrial activity in FGF6-treated cells, concentrations of glucose in the assay media of cells were manipulated and measured in the Seahorse Bioanalyzer. FGF6 was stably expressed in WT-1 brown preadipocytes and 3T3-F442A white preadipocytes. Stable cells were generated by viral infection followed by drug selection.\nA profile of the extracellular acidification rate (ECAR) was developed as described in FIG. 20A. 10 mM glucose was added to the assay media, which was then taken up by the cells and catabolized through glycolysis, producing ATP and protons, and resulting in a rapid increase in ECAR. […] Lastly, the glycolysis inhibitor 2-DG was added to measure […]."}, "[1]": {"experiment": "Glucose levels after subcutaneous injection in Chow or high fat diet mice", "format": "in vivo, C57BL6 mice", "settings": "0.5 mg/kg subcutaneous; vs buffer", "method": "To determine whether induction of UCP1 and mitochondrial activity by FGF6 could lead to increased nutrient utilization and lower blood glucose or fatty acid in obese mice, diet-induced obese (DIO) mice were treated with recombinant FGF6, and glucose levels were monitored after injection. Specifically, C57BL6 mice (11 weeks) were fed on either a high fat diet (HFD) or a Chow diet (a regular animal diet as a control) and were injected subcutaneously with 0.5 mg/kg recombinant FGF6 (n=5) or buffer (n=5). Glucose levels were measured every 6 hours after injection."}, "[2]": {"experiment": "Glucose tolerance test in Chow or high fat diet mice", "format": "in vivo, C57BL6 mice", "settings": "Chow or HFD mice, i.p. glucose 2 mg/g after 16 h fast; particularly in obese HFD mice", "method": "C57BL6 mice were fed either the Chow diet or a high fat diet (HFD) and were fasted overnight (16 h) prior to intraperitoneal injection of 2 mg/g body weight of glucose using a 20% (w/v) solution."}}, "note": "Entries after “also recorded” stand apart in the source; their conditions may differ."}
{"molecule": "B1", "values": [{"measurement": "PTGS2 mRNA expression relative to the control", "setting": "PTGS2 (COX2); 200 ng/mL with insulin and T3, three days", "value": "increased"}, {"measurement": "PTGS2 mRNA expression", "setting": "PTGS2 (COX2); 50-300 ng/mL, three days", "value": "induced"}, {"measurement": "COX2 protein expression, Western blot", "setting": "PTGS2 (COX2); 50-300 ng/mL, three days, dose-dependent", "value": "increased"}, {"measurement": "PTGS2 mRNA expression", "setting": "PTGS2 (COX2); WT-1, 24 hours, vs vehicle", "value": "significantly induced"}, {"measurement": "UCP1 expression", "setting": "UCP1", "value": "resulted in UCP1 expression; also recorded: marked increases"}, {"measurement": "cellular glycolysis, glycolytic capacity and glycolytic reserve (ECAR)", "setting": "WT-1 brown preadipocytes", "value": "increase in cellular glycolysis, glycolytic capacity and glycolytic reserve"}, {"measurement": "glucose level, Chow diet mice", "setting": "[1]", "value": "reduction in glucose levels; also recorded: lowers glucose levels"}, {"measurement": "glucose level, high fat diet (obese) mice", "setting": "[1]", "value": "lowers glucose levels"}, {"measurement": "glucose tolerance", "setting": "[2]", "value": "enhanced glucose tolerance; also recorded: improved glucose tolerance"}]}
